B1: library; numbered along this chain (parent)
chain: MAAAAAAAAEQQSSNGPVKKSMREKAVERRSVNKEHNSNFKAGYIPIDEDRLHKTGLRGRKGNLAICVIILLFILAVINLIITLVIWAVIRIGPNGCDSMEFHESGLLRFKQVSDMGVIHPLYKSTVGGRRNENLVITGNNQPIVFQQGTTKLSVENNKTSITSDIGMQFFDPRTQNILFSTDYETHEFHLPSGVKSLNVQKASTERITSNATSDLNIKVDGRAIVRGNEGVFIMGKTIEFHMGGNMELKAENSIILNGSVMVSTTRLPSSSSGDQLGSGDWVRYKLCMCADGTLFKVQVTSQNMGCQISDNPCGNTH

Variants of: B1
Experiment: SGCB cell-surface expression functional score (HA stain, bin4 vs bin1, normalised to synonymous) (log10 ratio); higher = more cell-surface SGCB (functional)
Procedure, shortened: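 HEK293 cells stably expressing alpha-, gamma- and delta-sarcoglycan received codon-saturation libraries of HA-tagged, YFP-fused human beta-sarcoglycan by lentiviral transduction at MOI <0.1, performed in duplicate. Cells positive for YFP were sorted after 72 hours and cultured for 5–7 days, then stained on ice with Alexa Fluor 647 anti-HA and fixed. Fixed cells were sorted into four 5% intensity bins and amplicon-sequenced, and the log ratio of highest-bin to lowest-bin variant frequency, as a median over codons and transductions, gives the functional score. Per section, synonymous variants were scaled to mean 0, SD 0.5.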

Row | Variant | SGCB cell-surface expression functional score (log10)
1 | MAAAAAAAAEQQSSNGPVKKSMREKAVERRSVNKEHNSNFKAGYIPIDEDRLHKTGLRGRKGNLAICVIILLFILAVINLIITLVIWAVIRIGPNGCDSMEFHESGLLRFKQVSDMGVIHPLYKSTVGGRRNENLVITGNNQPIVFQQGTTKLSVENNKTSITSDIGMQFFDPRTQNILFSTDYETHEFHLPSGVKSLNVQKASTERITSNATSDLNIKVDGRAIVRGNEGVFIMGKTEEFHMGGNMELKAENSIILNGSVMVSTTRLPSSSSGDQLGSGDWVRYKLCMCADGTLFKVQVTSQNMGCQISDNPCGNTH [I239E] | 0
2 | MAAAAAAAAEQQSSNGPVKKSMREKAVERRSVNKEHNSNFKAGYIPIDEDRLHKTGLRGRKGNLAICVIILLFILAVINLIITLVIWAVIRIGPNGCDSMEFHESGLLRFKQVSDMGVIHPLYKSTVGGRRNENLVITGNNQPIVFQQGTTKLSVENNKTSITSDIGMQFFDPRTQNILFSTDYETHEFHLPSGVKSLNVQKASTERITSNATSDLNIKVDGRAIVRGNEGVFIMGKTDEFHMGGNMELKAENSIILNGSVMVSTTRLPSSSSGDQLGSGDWVRYKLCMCADGTLFKVQVTSQNMGCQISDNPCGNTH [I239D] | -1.13
3 | MAAAAAAAAEQQSSNGPVKKSMREKAVERRSVNKEHNSNFKAGYIPIDEDRLHKTGLRGRKGNLAICVIILLFILAVINLIITLVIWAVIRIGPNGCDSMEFHESGLLRFKQVSDMGVIHPLYKSTVGGRRNENLVITGNNQPIVFQQGTTKLSVENNKTSITSDIGMQFFDPRTQNILFSTDYETHEFHLPSGVKSLNVQKASTERITSNATSDLNIKVDGRAIVRGNEGVFIMGKTFEFHMGGNMELKAENSIILNGSVMVSTTRLPSSSSGDQLGSGDWVRYKLCMCADGTLFKVQVTSQNMGCQISDNPCGNTH [I239F] | -0.45
4 | MAAAAAAAAEQQSSNGPVKKSMREKAVERRSVNKEHNSNFKAGYIPIDEDRLHKTGLRGRKGNLAICVIILLFILAVINLIITLVIWAVIRIGPNGCDSMEFHESGLLRFKQVSDMGVIHPLYKSTVGGRRNENLVITGNNQPIVFQQGTTKLSVENNKTSITSDIGMQFFDPRTQNILFSTDYETHEFHLPSGVKSLNVQKASTERITSNATSDLNIKVDGRAIVRGNEGVFIMGKTAEFHMGGNMELKAENSIILNGSVMVSTTRLPSSSSGDQLGSGDWVRYKLCMCADGTLFKVQVTSQNMGCQISDNPCGNTH [I239A] | 0.09
5 | MAAAAAAAAEQQSSNGPVKKSMREKAVERRSVNKEHNSNFKAGYIPIDEDRLHKTGLRGRKGNLAICVIILLFILAVINLIITLVIWAVIRIGPNGCDSMEFHESGLLRFKQVSDMGVIHPLYKSTVGGRRNENLVITGNNQPIVFQQGTTKLSVENNKTSITSDIGMQFFDPRTQNILFSTDYETHEFHLPSGVKSLNVQKASTERITSNATSDLNIKVDGRAIVRGNEGVFIMGKTCEFHMGGNMELKAENSIILNGSVMVSTTRLPSSSSGDQLGSGDWVRYKLCMCADGTLFKVQVTSQNMGCQISDNPCGNTH [I239C] | 0.46
6 | MAAAAAAAAEQQSSNGPVKKSMREKAVERRSVNKEHNSNFKAGYIPIDEDRLHKTGLRGRKGNLAICVIILLFILAVINLIITLVIWAVIRIGPNGCDSMEFHESGLLRFKQVSDMGVIHPLYKSTVGGRRNENLVITGNNQPIVFQQGTTKLSVENNKTSITSDIGMQFFDPRTQNILFSTDYETHEFHLPSGVKSLNVQKASTERITSNATSDLNIKVDGRAIVRGNEGVFIMGKTHEFHMGGNMELKAENSIILNGSVMVSTTRLPSSSSGDQLGSGDWVRYKLCMCADGTLFKVQVTSQNMGCQISDNPCGNTH [I239H] | -0.15
7 | MAAAAAAAAEQQSSNGPVKKSMREKAVERRSVNKEHNSNFKAGYIPIDEDRLHKTGLRGRKGNLAICVIILLFILAVINLIITLVIWAVIRIGPNGCDSMEFHESGLLRFKQVSDMGVIHPLYKSTVGGRRNENLVITGNNQPIVFQQGTTKLSVENNKTSITSDIGMQFFDPRTQNILFSTDYETHEFHLPSGVKSLNVQKASTERITSNATSDLNIKVDGRAIVRGNEGVFIMGKTGEFHMGGNMELKAENSIILNGSVMVSTTRLPSSSSGDQLGSGDWVRYKLCMCADGTLFKVQVTSQNMGCQISDNPCGNTH [I239G] | -0.41
8 | MAAAAAAAAEQQSSNGPVKKSMREKAVERRSVNKEHNSNFKAGYIPIDEDRLHKTGLRGRKGNLAICVIILLFILAVINLIITLVIWAVIRIGPNGCDSMEFHESGLLRFKQVSDMGVIHPLYKSTVGGRRNENLVITGNNQPIVFQQGTTKLSVENNKTSITSDIGMQFFDPRTQNILFSTDYETHEFHLPSGVKSLNVQKASTERITSNATSDLNIKVDGRAIVRGNEGVFIMGKWIEFHMGGNMELKAENSIILNGSVMVSTTRLPSSSSGDQLGSGDWVRYKLCMCADGTLFKVQVTSQNMGCQISDNPCGNTH [T238W] | -0.07
9 | MAAAAAAAAEQQSSNGPVKKSMREKAVERRSVNKEHNSNFKAGYIPIDEDRLHKTGLRGRKGNLAICVIILLFILAVINLIITLVIWAVIRIGPNGCDSMEFHESGLLRFKQVSDMGVIHPLYKSTVGGRRNENLVITGNNQPIVFQQGTTKLSVENNKTSITSDIGMQFFDPRTQNILFSTDYETHEFHLPSGVKSLNVQKASTERITSNATSDLNIKVDGRAIVRGNEGVFIMGKYIEFHMGGNMELKAENSIILNGSVMVSTTRLPSSSSGDQLGSGDWVRYKLCMCADGTLFKVQVTSQNMGCQISDNPCGNTH [T238Y] | -0.01
10 | MAAAAAAAAEQQSSNGPVKKSMREKAVERRSVNKEHNSNFKAGYIPIDEDRLHKTGLRGRKGNLAICVIILLFILAVINLIITLVIWAVIRIGPNGCDSMEFHESGLLRFKQVSDMGVIHPLYKSTVGGRRNENLVITGNNQPIVFQQGTTKLSVENNKTSITSDIGMQFFDPRTQNILFSTDYETHEFHLPSGVKSLNVQKASTERITSNATSDLNIKVDGRAIVRGNEGVFIMGKVIEFHMGGNMELKAENSIILNGSVMVSTTRLPSSSSGDQLGSGDWVRYKLCMCADGTLFKVQVTSQNMGCQISDNPCGNTH [T238V] | 0.95

Reference: the supplement of paper PMC10266784
